Earlier results, collected in PMC2817915.
“And” between values parts separate entries of the source, which are not always exact repeats. Identical values can stand only once.

What was measured:
Details in all cases: native HEWL; ligand state not stated
[1] = target: His15 (UniProt position 33, AAMKRHGLDNY)
[2] = target: Asp18 (UniProt position 36, KRHGLDNYRGY)
[3] = target: Asp119 (UniProt position 137, RCKGTDVQAWI)
[4] = target: Glu35 (UniProt position 53, CAAKFESNFNT)
[5] = target: Asp66 (UniProt position 84, RWWCNDGRTPG)
[6] = target: Asp48 (UniProt position 66, TNRNTDGSTDY)
[7] = target: Glu7 (UniProt position 25, VFGRCELAAAM)
[8] = target: Asp87 (UniProt position 105, ALLSSDITASV)
[9] = target: Asp52 (UniProt position 70, TDGSTDYGILQ)
[10] = target: Asp101 (UniProt position 119, KKIVSDGNGMN)

## Hen egg-white lysozyme (HEWL, lysozyme C) (Gallus gallus)
[1]
  pKa: 5.71
[2]
  pKa: 2.66
[3]
  pKa: 3.20
[4]
  pKa: 6.20
[5]
  pKa: 2.00
[6]
  pKa: 2.50
[7]
  pKa: 2.85
[8]
  pKa: 2.07
[9]
  pKa: 3.68 and 3.6−3.76
[10]
  pKa: 4.09
